Source: US20110039771A1 (University of California, published 2011)
Where no end group is shown, it is not given here.

Key:
Assay in all cases: dot blot: peptide on nitrocellulose, probed with biotinylated-HN and streptavidin-HRP
humanin (HN) = biological target: T1, humanin (HN) (human)
T1 construct: Unlabelled HN dotted on nitrocellulose as positive control; also called Humanin (M)
T1 peptide: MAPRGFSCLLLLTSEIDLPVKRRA
Description: (§1) FIG. 12 HN binds to SHLP2 and SHLP4. 2, 5 and 10 nmol of IGF-1 (negative control), HN, SHLP1, 2 or 4 were dotted on to nitrocellulose membrane and left to dry. The membrane was blocked, incubated with biotinylated-HN and streptavidin-HRP and exposed by autoradiography.
(§2) To test a dimerization hypothesis, we performed a dot-blot using biotinylated-HN. Two, 5 or 10 nmol IGF-I (negative control), HN (positive control) or SHLP peptide were dotted on to nitrocellulose membrane, and their ability to bind to biotinylated-HN was assessed immunologically. […] Specific interactions that occur may be determined using, e.g., dot blots with biotinylated SHLPs, and/or antibodies against specific SHLPs.

SHLP1 = biological target: T2, SHLP1 (human)
T2 construct: Dotted on nitrocellulose; also called small humanin-like peptide 1; SHLP1 (M)
T2 peptide: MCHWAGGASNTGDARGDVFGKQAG
Description: as §1, §2

SHLP4 = biological target: T3, SHLP4 (human)
T3 construct: Dotted on nitrocellulose; also called small humanin-like peptide 4; SHLP4 (M)
T3 peptide: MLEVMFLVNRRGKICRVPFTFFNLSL
Description: as §1, §2

SHLP2 = biological target: T4, SHLP2 (human)
T4 construct: Dotted on nitrocellulose; also called small humanin-like peptide 2; SHLP2 (M)
T4 peptide: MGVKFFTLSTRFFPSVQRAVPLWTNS
Description: as §1, §2

B1: biotinylated-HN (peptide)
peptide: MAPRGFSCLLLLTSEIDLPVKRRA
modifications: also: biotinylated, site not given here
notes: Probe in solution in the dot blot, detected with streptavidin-HRP; also called biotinylated humanin
binding result (humanin (HN)): binds
binding result (SHLP1): no binding (tested: 2, 5 or 10 nmol dotted)
binding result (SHLP4): binds
binding result (SHLP2): binds
